Source: patent US20210316007A1 (DUKE UNIVERSITY, published 2021)
Where a chain is given by its changes, count along the chain named.

How the values were obtained:
mouse serum albumin [1] = target: T1, mouse serum albumin (mouse, UniProt P07724 25-608); assay: ITC, MSA titrated into CP-DOX micelles, PBS pH 7.4, 37 °C
T1 construct: also called MSA; mouse albumin

human serum albumin [2] = target: T2, human serum albumin (human, UniProt P02768 25-609); assay: ITC, HSA titrated into ELP, PBS pH 7.4, 37 °C; Example 2 ITC series (FIG. 3A), naked ELP control
T2 construct: also called HSA; human albumin

mouse serum albumin [3] = target: T1, mouse serum albumin; assay: ITC (Nano ITC), albumin titrated into construct, PBS, 37 °C; PTX-example ITC series (Table 10), CP without ABD and without drug; µM fit
mouse serum albumin [4] = target: T1, mouse serum albumin; assay: ITC, MSA titrated into ELP, PBS pH 7.4, 37 °C; Example 2 ITC series (FIG. 4A), naked ELP control; fitted N with an error larger than the value
human serum albumin [5] = target: T2, human serum albumin; assay: ITC, HSA titrated into ELP, PBS pH 7.4, 37 °C; Example 2 ITC series (FIG. 3A), naked ELP control; weak µM best-fit KD that the text calls no specific affinity
mouse serum albumin [6] = target: T1, mouse serum albumin; assay: ITC, MSA titrated into ELP, PBS pH 7.4, 37 °C; Example 2 ITC series (FIG. 4A), naked ELP control; weak µM best-fit KD that the text calls no specific affinity
mouse serum albumin [7] = target: T1, mouse serum albumin; assay: ITC, MSA titrated into ABDH-ELP, PBS pH 7.4, 37 °C
Experimental: (§1) The experiments were performed in phosphate buffered saline (pH 7.4) at 37° C.

mouse serum albumin [8] = target: T1, mouse serum albumin; assay: ITC, MSA titrated into ABDH-CP-DOX micelles, PBS pH 7.4, 37 °C
Experimental: as §1

mouse serum albumin [9] = target: T1, mouse serum albumin; assay: ITC (Nano ITC), albumin titrated into micelles, PBS, 37 °C
Experimental: (§2) For PTX conjugates, ITC was conducted using a Nano ITC system (TA Instruments, Utah, USA). […] For background correction, PBS (in the cell) was titrated with albumin (in the syringe) at the same concentrations and conditions. Background was subtracted from the final curves and the binding and thermodynamic parameters binding constant (KD), number of binding sites (n), and enthalpy (ΔH)—were computed by non-linear fitting to an independent-binding site model using TA Instruments NanoAnalyze software.

human serum albumin [10] = target: T2, human serum albumin; assay: as above
Experimental: as §2

mouse serum albumin [11] = target: T1, mouse serum albumin; assay: ITC, MSA titrated into ABDN-CP-DOX micelles, PBS pH 7.4, 37 °C
Experimental: as §1

human serum albumin [12] = target: T2, human serum albumin; assay: ITC, HSA titrated into ABDN-ELP, PBS pH 7.4, 37 °C
Experimental: as §1

mouse serum albumin [13] = target: T1, mouse serum albumin; assay: ITC, MSA titrated into ABDN-ELP, PBS pH 7.4, 37 °C
Experimental: as §1

mouse serum albumin [14] = target: T1, mouse serum albumin; assay: ITC (Nano ITC), albumin titrated into construct, PBS, 37 °C
human serum albumin [15] = target: T2, human serum albumin; assay: as above

T1 sequence (P07724 25-608 limits assumed): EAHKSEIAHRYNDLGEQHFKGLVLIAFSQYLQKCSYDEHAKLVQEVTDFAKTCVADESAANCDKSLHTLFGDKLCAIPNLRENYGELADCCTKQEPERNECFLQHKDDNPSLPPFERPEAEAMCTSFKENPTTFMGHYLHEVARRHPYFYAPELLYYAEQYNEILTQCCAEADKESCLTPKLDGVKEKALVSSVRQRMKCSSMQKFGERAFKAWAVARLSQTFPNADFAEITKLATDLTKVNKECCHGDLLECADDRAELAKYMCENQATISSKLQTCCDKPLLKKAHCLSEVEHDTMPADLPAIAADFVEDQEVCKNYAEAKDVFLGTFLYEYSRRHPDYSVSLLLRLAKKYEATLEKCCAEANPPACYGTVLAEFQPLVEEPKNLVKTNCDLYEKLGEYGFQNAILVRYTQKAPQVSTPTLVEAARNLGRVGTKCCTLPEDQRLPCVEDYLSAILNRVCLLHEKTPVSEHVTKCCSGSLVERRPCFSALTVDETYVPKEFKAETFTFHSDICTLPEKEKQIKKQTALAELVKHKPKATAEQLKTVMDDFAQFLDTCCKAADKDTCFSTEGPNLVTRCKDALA

Molecule “CP-DOX micelles (doxorubicin-conjugated chimeric polypeptide without ABD)” has a Kd (mouse serum albumin [1]) of 91900 nM and a binding stoichiometry N (mouse serum albumin [1]) of 0.0386.

Work on “ELP (naked elastin-like polypeptide with no ABD at its N-terminus)” yielded a binding stoichiometry N (human serum albumin [2]) of 0.75, a Kd (mouse serum albumin [3]) of 3500 nM and a binding stoichiometry N (mouse serum albumin [4]) of 0.152. For the same molecule, the Kd (human serum albumin [5]) was 69000 nM and the Kd (mouse serum albumin [6]) was 71400 nM.

B1: ABDH-ELP (albumin binding domain H, engineered variant of ABDN, fused to the N-terminus of ELP) (designed binder)
chain: LAEAKVLANRELDKYGVSDFYKRLINKAKTVEGVEALKLHILAALPVPGAGVPGAGVPGAGVPGAGVPGAGVPGAGVPGAGVPGAGVPGAGVPGAGVPGAGVPGAGVPGAGVPGAGVPGAGVPGAGVPGAGVPGAGVPGAGVPGAGVPGAGVPGAGVPGAGVPGAGVPGAGVPGAGVPGAGVPGAGVPGAGVPGAGVPGAGVPGAGVPGAGVPGAGVPGAGVPGAGVPGAGVPGAGVPGAGVPGAGVPGAGVPGAGVPGAGVPGAGVPGAGVPGAGVPGAGVPGAGVPGAGVPGAGVPGAGVPGAGVPGAGVPGAGVPGAGVPGAGVPGAGVPGAGVPGAGVPGAGVPGAGVPGAGVPGAGVPGAGVPGAGVPGAGVPGAGVPGAGVPGAGVPGAGVPGAGVPGAGVPGAGVPGAGVPGAGVPGAGVPGAGVPGAGVPGAGVPGAGVPGAGVPGAGVPGAGVPGAGVPGAGVPGAGVPGAGVPGAGVPGAGVPGAGVPGAGVPGAGVPGAGVPGAGVPGAGVPGAGVPGAGVPGAGVPGAGVPGAGVPGAGVPGAGVPGAGVPGAGVPGAGVPGAGVPGAGVPGAGVPGAGVPGAGVPGAGVPGAGVPGAGVPGAGVPGAGVPGAGVPGAGVPGAGVPGAGVPGAGVPGAGVPGAGVPGAGVPGAGVPGAGVPGAGVPGAGVPGAGVPGAGVPGAGVPGAGVPGAGVPGAGVPGAGVPGAGVPGAGVPGAGVPGAGVPGAGVPGAGVPGAGVPGAGVPGAGCGGCGGCGGCGGCGGCGGCGGCGG
notes: Unconjugated monomer, 68.6 kDa by SDS-PAGE; also called ABDH-CP
With B1 the Kd (mouse serum albumin [7]) was 5.19 nM.

B2: ABDH-CP-DOX micelles (doxorubicin-conjugated ABDH-chimeric polypeptide) (designed binder)
chain: B1 chain
notes: Self-assembled micelle; aggregates at 37 °C without albumin
For B2, the Kd (mouse serum albumin [8]) was 66.1 nM.

B3: ABD-CP-PTX micelles (paclitaxel-conjugated ABD-chimeric polypeptide) (designed binder)
chain: B1 chain with F20Y, R23N, K27N, E35K, K38I, L39D, H40E
notes: Self-assembled micelle; also called ABDN-CP-PTX
In the case of B3, the Kd (mouse serum albumin [9]) is reported as 4.37 nM and the Kd (human serum albumin [10]) is reported as 5.58 nM.

B4: ABDN-CP-DOX micelles (doxorubicin-conjugated ABDN-chimeric polypeptide) (designed binder)
chain: B1 chain with F20Y, R23N, K27N, E35K, K38I, L39D, H40E
notes: Self-assembled micelle; also called ABD-CP-DOX
For B4, the Kd (mouse serum albumin [11]) was 318 nM.

B5: ABDN-ELP (albumin binding domain N fused to the N-terminus of ELP) (designed binder)
chain: LAEAKVLANRELDKYGVSDYYKNLINNAKTVEGVKALIDEILAALPVPGAGVPGAGVPGAGVPGAGVPGAGVPGAGVPGAGVPGAGVPGAGVPGAGVPGAGVPGAGVPGAGVPGAGVPGAGVPGAGVPGAGVPGAGVPGAGVPGAGVPGAGVPGAGVPGAGVPGAGVPGAGVPGAGVPGAGVPGAGVPGAGVPGAGVPGAGVPGAGVPGAGVPGAGVPGAGVPGAGVPGAGVPGAGVPGAGVPGAGVPGAGVPGAGVPGAGVPGAGVPGAGVPGAGVPGAGVPGAGVPGAGVPGAGVPGAGVPGAGVPGAGVPGAGVPGAGVPGAGVPGAGVPGAGVPGAGVPGAGVPGAGVPGAGVPGAGVPGAGVPGAGVPGAGVPGAGVPGAGVPGAGVPGAGVPGAGVPGAGVPGAGVPGAGVPGAGVPGAGVPGAGVPGAGVPGAGVPGAGVPGAGVPGAGVPGAGVPGAGVPGAGVPGAGVPGAGVPGAGVPGAGVPGAGVPGAGVPGAGVPGAGVPGAGVPGAGVPGAGVPGAGVPGAGVPGAGVPGAGVPGAGVPGAGVPGAGVPGAGVPGAGVPGAGVPGAGVPGAGVPGAGVPGAGVPGAGVPGAGVPGAGVPGAGVPGAGVPGAGVPGAGVPGAGVPGAGVPGAGVPGAGVPGAGVPGAGVPGAGVPGAGVPGAGVPGAGVPGAGVPGAGVPGAGVPGAGVPGAGVPGAGVPGAGVPGAGVPGAGVPGAGVPGAGVPGAGVPGAGVPGAGVPGAGVPGAGVPGAGVPGAGVPGAGCGGCGGCGGCGGCGGCGGCGGCGG
notes: Unconjugated monomer, 68.5 kDa by SDS-PAGE; also called ABDN-CP; ABD-CP
With B5 the Kd (human serum albumin [12]) was 48.4 nM, the Kd (mouse serum albumin [13]) was 66.4 nM and the Kd (mouse serum albumin [14]) was 16.3 nM. It also gave a Kd (human serum albumin [15]) of 6.47 nM.
